Data set [1] addresses T1, partial mouse PEPI (1180 bp of the ORF) in fusion with the activation domain of GAL4 (GAL4-AD), 21 two-hybrid … (yeast; mouse, UniProt P28798 197-589, limits assumed).
T1 construct: EPIs G and F absent; also called proepithelin
T1 sequence: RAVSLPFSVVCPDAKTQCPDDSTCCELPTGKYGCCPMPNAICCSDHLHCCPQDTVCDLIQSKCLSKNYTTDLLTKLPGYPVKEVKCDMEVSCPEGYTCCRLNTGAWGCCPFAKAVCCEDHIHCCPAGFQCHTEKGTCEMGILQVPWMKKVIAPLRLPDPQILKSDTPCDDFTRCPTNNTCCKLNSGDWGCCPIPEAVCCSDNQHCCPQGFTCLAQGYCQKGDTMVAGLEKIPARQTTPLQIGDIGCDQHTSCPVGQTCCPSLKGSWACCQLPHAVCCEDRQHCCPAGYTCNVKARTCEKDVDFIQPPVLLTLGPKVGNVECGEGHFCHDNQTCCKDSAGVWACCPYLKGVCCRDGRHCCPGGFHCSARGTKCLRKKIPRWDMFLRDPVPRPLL
In words: yeast two-hybrid, growth without histidine and LacZ expression.

Data set [2] has as its target T2, recombinant human SLPI (Amgen).
T2 chain: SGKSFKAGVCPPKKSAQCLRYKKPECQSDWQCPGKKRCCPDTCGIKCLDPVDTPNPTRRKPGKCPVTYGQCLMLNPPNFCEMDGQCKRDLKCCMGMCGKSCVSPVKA

Data set [3] addresses T3, recombinant mouse SLPI (Amgen).
T3 chain: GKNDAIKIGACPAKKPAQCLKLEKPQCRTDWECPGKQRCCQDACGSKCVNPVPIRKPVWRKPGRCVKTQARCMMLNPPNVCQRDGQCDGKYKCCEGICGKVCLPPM

Data set [4] has as its target T4, recombinant human SLPI (Amgen) (human, UniProt P03973 26-132).
T4 construct: Obtained from Amgen; also called SLPIwt; wild type human SLPI
Description: reciprocal co-immunoprecipitation of pure recombinant proteins (anti-FLAG M2 and anti-SLPI), western blot. The source says:
PEPI and SLPI were transiently expressed in HEK293 or COS-1 cells. FLAG-tagged PEPI (aa 18-593) was expressed from pCMVI-FLAG and SLPI constructs from pcDNA3.1 (Invitrogen). SLPI constructs included mouse full length (aa 1-131), mouse N-terminal domain (aa 1-80), mouse C-terminal domain (aa 1-25/81-131), and human full-length (aa 1-131). Three days following co-transfection via SuperFect reagent (Qiagen), conditioned media were immunoprecipitated with FLAG M2 antibody (Sigma), separated by reducing SDS-PAGE and western blotted with anti-SLPI antibody (Jin et al., 1997). For in vitro immunoprecipitation assays, recombinant human PEPI or EPI (FLAG-tagged) and SLPI (5 pmol each) were incubated in 10 mM Tris-HCl (pH 7.5), 150 mM NaCl at 37° C. for 30 min before immunoprecipitation with anti-FLAG M2 antibody and western blotting with anti-SLPI antibody or the reverse.
Next, experiments were performed to ascertain which part of PEPI binds to SLPI (for the order of EPIs in PEPI, see FIG. 1A). EPIs G and F were absent in the partial PEPI sequences isolated as SLPI-binding proteins in yeast (FIG. 1A) and thus were dispensable for the interaction. […] When FLAG-tagged recombinant human EPI A or EPI B was incubated with recombinant human SLPI at an equimolar ratio (FIG. 2E) or at a molar ratio of A (or B):SLPI::1:5 (not shown), SLPI was not detected in EPI immunoprecipitates or vice versa. […]
On the technique in general: Immunoblotting shows a protein as a band on a membrane.

The target of data set [5] is T5, PEPI in human bronchoalveolar lavage (BAL) fluid (human, UniProt P28799 18-593).
T5 construct: Endogenous protein, immunoprecipitated with antiserum against human PEPI; also called proepithelin
T5 sequence (looked up): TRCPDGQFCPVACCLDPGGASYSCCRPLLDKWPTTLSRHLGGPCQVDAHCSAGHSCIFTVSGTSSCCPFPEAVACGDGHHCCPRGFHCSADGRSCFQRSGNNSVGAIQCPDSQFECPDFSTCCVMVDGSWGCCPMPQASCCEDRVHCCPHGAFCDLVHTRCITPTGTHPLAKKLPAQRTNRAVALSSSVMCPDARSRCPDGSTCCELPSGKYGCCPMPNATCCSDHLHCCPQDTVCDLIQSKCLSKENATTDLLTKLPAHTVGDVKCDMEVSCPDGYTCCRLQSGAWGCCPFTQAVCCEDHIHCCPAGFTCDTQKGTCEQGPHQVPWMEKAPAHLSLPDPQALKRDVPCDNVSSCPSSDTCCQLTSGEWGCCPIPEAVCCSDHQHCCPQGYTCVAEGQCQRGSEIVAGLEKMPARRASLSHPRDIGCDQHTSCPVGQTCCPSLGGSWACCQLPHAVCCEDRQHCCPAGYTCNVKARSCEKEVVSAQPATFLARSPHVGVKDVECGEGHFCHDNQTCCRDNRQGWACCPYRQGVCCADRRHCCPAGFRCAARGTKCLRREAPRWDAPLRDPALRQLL
In words: immunoprecipitation of PEPI from BAL fluids of two individuals, anti-SLPI blot. On the procedure: BAL fluids were collected from healthy adult subjects according to an institutional review board-approved protocol following informed consent. The fluids (45 ml each) were concentrated to 0.5 ml in a Centriprep (Millipore) with 10 kDa cut-off before immunoprecipitation with antiserum against human PEPI and western blotting with antisera against human SLPI or human PEPI.
To test if a SLPI-PEPI complex exists in vivo normal human bronchoalveolar lavage (BAL) fluid samples were examined because both SLPI and PEPI are strongly expressed in airway epithelium (Abe et al., 1991; Daniel et al., 2000). PEPI was immunoprecipitated from the BAL fluids collected from two individuals, and SLPI was detected in the PEPI immunoprecipitates (FIG. 2D). Thus, the SLPI-PEPI complex is physiologic.

B1: lamin C (other, UniProt P02545-2 67-230, looked up)
chain: EEVVSREVSGIKAAYEAELGDARKTLDSVAKERARLQLELSKVREEFKELKARNTKKEGDLIAAQARLKDLEALLNSKEAALSTALSEKRTLEGELHDLRGQVAKLEAALGEAKKQLQDEMLRRVDAENRLQTMKEELDFQKNIYSEELRETKRRHETRLVEID
notes: Non-specific control in the yeast two-hybrid test
Turning to B1, in data set [1], the binding result was “no binding”.

B2: human neutrophil elastase (Sigma) (protein)
chain: IVGGRRARPHAWPFMVSLQLRGGHFCGATLIAPNFVMSAAHCVANVNVRAVRVVLGAHNLSRREPTRQVFAVQRIFENGYDPVNLLNDIVILQLNGSATINANVQVAQLPAQGRRLGNGVQCLAMGWGLLGRNRGIASVLQELNVTVVTSLCRRSNVCTLVRGRQAGVCFGDSGSPLVCNGLIHGIASFVRGGCASGLYPDAFAPVAQFVNWIDSIIQ
Take B2: the “cleavage of PEPI by elastase (anti-FLAG western blot)” value in data set [2] was “human and mouse SLPI did block the cleavage of human PEPI by elastase, human SLPI being the more potent”; in data set [3], “human and mouse SLPI did block the cleavage of human PEPI by elastase, human SLPI being the more potent”.

B3: recombinant human EPI A (aa 281-337) with an N-terminal FLAG-6xHis tag, from insect cells (other)
chain: DVKCDMEVSCPDGYTCCRLQSGAWGCCPFTQAVCCEDHIHCCPAGFTCDTQKGTCEQ
notes: the construct is stated as aa 281-337; also called epithelin A; not shown: N-terminal FLAG-6xHis tag
Turning to B3, the binding result in data set [4] is reported as “no binding”.

B4: recombinant human EPI B (aa 206-261) with an N-terminal FLAG-6xHis tag, from insect cells (other)
chain: VMCPDARSRCPDGSTCCELPSGKYGCCPMPNATCCSDHLHCCPQDTVCDLIQSKCL
notes: also called epithelin B; not shown: N-terminal FLAG-6xHis tag
With B4, in data set [4], the binding result is on record as “no binding”.

B5: SLPI in human bronchoalveolar lavage (BAL) fluid (other, UniProt P03973 26-132, looked up)
chain: SGKSFKAGVCPPKKSAQCLRYKKPECQSDWQCPGKKRCCPDTCGIKCLDPVDTPNPTRRKPGKCPVTYGQCLMLNPPNFCEMDGQCKRDLKCCMGMCGKSCVSPVKA
notes: Endogenous protein
Regarding B5, in data set [5], the binding result is recorded as “binds”.
